# According to the nanobody polyreactivity screen of Harvey et al. (2022):
# Test: yeast display, Sf9 membrane polyspecificity reagent, FACS + sequencing; frameworks hold sequencing errors
# Method in brief: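 Galactose induction of a Saccharomyces cerevisiae BJ5465 synthetic nanobody display library ran 36–48 hours. The cells were then stained for 1 hour at 4 °C with 10% biotinylated, detergent-solubilized Sf9 membrane reagent, pulled down on streptavidin microbeads and FACS-sorted into low and high (top ~1%) gates on expression and reagent-binding fluorescence. Labels for polyreactivity follow the gate of origin.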
row,Sequence,polyreactivity (PSR sort gate)
1,QVQLVESGGGLVQAGGSLRLSCAASGRIFHHNAMGWYRQAPGKERELVATITKSGGSTYADSVKGRFTISRDNAKNTVYLQMNSLKPEDTAVYYCDADVTNRGTWVIYGYYYWGQGTQVTVSS,low polyreactivity
2,QFQLVESGGGLVQAGGSLRLSCAASGSTFGVNAMGWYRQAPGKERELVAAISSSGSSTYADSVKGRFTISRDNAKNTVYLQMNSLKPEDTAVYYCNKTTLLTVEYDYWGQGTQVTVSS,low polyreactivity
3,QVQHVESGGGLFQAGGSHRLSCAASGRTFSKNAMGWYRQAPGKERELVAAINRGGTTKYADSVKGRFTISRDNAKNTVYLQMNSQKPEDTTVYYCAVDRQRAGYPKQYDSWGQGTQVTVSS,low polyreactivity
4,QVQLVESGGGLVQAGASLRLSCAASGRTFWYNAMGGYRQAPGKERELVAAISSTGGRTYYADSVKGRFTISRDNAKNTVYLQMNSLKPEDTAVYYCAARQLSSHYDYWGQGTQVTVSS,low polyreactivity
5,QVQLVESGGGLVQAGGSLRLSCAASGFTFVYYAMGWYRQAPGKERELVAGISSSAGSTYYADSVKGRFTISRDNAKNTVYLQMNSLKPEDTAVYYCNAEYYWWPFDYWGQGTQVTVSS,high polyreactivity
6,QVQLVESGGGLVQAGGSLRLSCAASGRIFNGNAMGWYRQAPGKERELVAAISVSGGSTYYADSVKGRFTISRDNAKNTVYLQMNSLKPEDTAVYYCAARTSSYSFPYAYNYWGQGTQVTVSS,high polyreactivity
7,QVQLVESGGGLVQAGGSLRLSCAASGSIFYSNVMGWYRQAPGKERELVAAISKNGGSTYYADSVKGRFTISRDNAKNTVYLQMNSLKPEDTAVYYCAKYGYVGTTYGYWGQGTQVTVSS,high polyreactivity
8,QVQLVESGGGLVQAGGSLRLSCAASGRIFSRYAMGWYRQAPGTERELVAAISASGGSTYYADSVKGRFTISRDNAKNTVYLQMNSLKPEDTAVYYCNAYQTSTTLFPGYGYWGQGTQVTVSS,low polyreactivity
9,QVQLVESGGGLVQAGGSLRLSCAASGSTFYGYTMGWYRQATGKERELVAVITYGGSTYYADSVKGRFTISRDNAKNTVYLQMNSLKPEDTAVYYCAKRYAYPAYGRPWRIGRTYDYWGQGTQVTVSS,low polyreactivity
10,QVQLVESGGGLVQAGGSLRLSCASSGSIFSYNAMGWYRQAPGKERELVAAITRSGGSTYYADSVKGRFTISRDNAKNTVYLQMNSLKPEDTAVYYCAVYLPYSQRYVHYYYWGQGTQVTVSS,high polyreactivity
11,QVQHVESGGGIVQAGGSLRLSCAASGSIFRNNTMGWYRQAPGKERELVAAISGRGTRTSYADSVKGRFTISRDNAKNTVYLQMNSLKPEDTAVYYCAARSWYLYYWGQGTQVTVSS,low polyreactivity
12,QVQLVESGGGLVQAGGSLRLSCAASGSIFVTNGMGWYRQAPGKERELVAVISWGGGNTYYADSVKGRFTISRDNAKNTVYLLMNNLKPEDTAVYYCAVELYWDYYFTYGYWGKGTQVTVSS,low polyreactivity
13,QVHLVESGGGLVQAGGSLRLSSAASGSTFVFNAMAWYRQAPGKESELVAGISWSGGSTYYADSVKGRFTISRDNSKNTVYLQMKSLKPEDTAVYYCAVDGYFWGYYERDYSGQGTQVTVSS,low polyreactivity
14,QVQLVESGGGLVQAGGSLRLSCDASGRTFAGYAMGWYRQAPGKERELVAAITTSGGRTYYADSVKGRFTISRDNAKNTVYLQMNSLKPEDTAVYDCNVASKGRYARYAAEYGSWGQGTQVTVSS,high polyreactivity
15,QVQLVESGGGLVQAGGSLRLSCAASGYTLRIYAMGWYRQAPGKEREMVAAISRSGGRTFYADSVKGRFTISRDNAKNTVYLQMNSLKPEDTAVYYCAADPRSYDTGRMDYWGQGTQVTVSS,high polyreactivity
16,QVQLVESGGGLVQAGGSLRLSCAATGSTFVYYALGWYRPAPGKERELVAAITASGGGTYYADSVKGRFTISRDNAKNTVYLQMNSLKPEDTAVYYCNRGYDYWGQGTQVTGSS,low polyreactivity
17,QVQLVESGGGLVQAGGSLRLSCAASGSTFAKYAMGWYRQAPGKERELVASIRLSGGSTYYADSVKGRFTISRDNAKNPDYLQMNSLNPEDTAVYYFNKQFATFYYGFDYYYWGQGSQVTVSS,low polyreactivity
18,QVQLVESGGGLVQAGGSLRLSCAASGSIFGAYAMGSYRQAPGKERELVASISDGGGTYYADSVKGRFTISRDNAKNTVYLQMNSLKPEDTAVYYCAADPPKRVPGGYWGQGTQVTVSS,low polyreactivity
19,QVQLVESGGGLVQAGGSLRLSCAASGYIFHSYAMGWYRQAPGKERELVAAITSSGGSTYYADSVKGRFTISRDNAKNTVYLQMNSLKPEDTAVYYCAAEYYYVYPYYRSPKFDYWGQGTQVTVSS,high polyreactivity
20,QVQLVESGGGLVQAGGSLRLSCAASGRTFQPYAMGWYRQAPRKERELVASISRSGGRTYYADSVKGRFTISRDNAKNTVYLQMNSLKPEDTAVYYCADDIPYTRSIKYYYWGQGTQVTVSS,high polyreactivity
21,QVQLVESGGGLVQAGGSLRLSCAASGLTYWAYAMGWYRQAPGKERDFVAAISWSGDSTYYADSVKGRYTISRDNAKNTVYLQMNSLKPEDTAVYYCAAEWYYVYIAPYDYLGQGTQVTVSS,low polyreactivity
22,QVQLVESGGGLVQAGGSLRLSCAASGSTFAKNAMGWYRQAPGKERELVAAITASGGSTYYADSVKGRFTISRDNAKNTVSLQMNSLKPEDTAVYYCAKSSYLTRGSRYDYWGQGTQVTVSS,low polyreactivity

row,Sequence,polyreactivity (PSR sort gate)
1,QVQLVESGGCLVQAGGSLRLSCAASGRNFGTYAMGWYRQATGKERELVAASTRGGTTYYADSVKGRFTISRDNAKNTVYLQMNSLTQEDTAVYYCATGPAIRYDYWGQGTQVTVSS,low polyreactivity
2,QVQLVESGGGLVQAGGSLRLSCAASGRILRYYAMGWYRQAPGKELELVASISRGGSTYYADSVKGRFTISRDNAKNTVYLQMNSLKPEDTAVYYCATEVRRSTREFGYWGQGTQVTVSS,high polyreactivity
3,QVQLEESGVGLVQAGGSLRLSCAASGSIYGYAMGWYRQSPGKQRELVASISSGGSTYYADSVKGRFTISRDNAKNSVYLQMNSLKPEDTAVYYCAARAYSYQAQSYYWGQGTQVTVSS,high polyreactivity
4,QVQLVESGGGLVQAGGILRLSFAASGRIFTHYAMAGYRPAPGKERELVAAIRYSGGRTYYADSVKGRFTLSRDNAKNTVYLQMNSRKPEDTAVYYCAAEGFGGSFRSFYTIYDYWGQGTLVTVSS,high polyreactivity
5,QVQLVESGGGLVQAGGSLRLSCADSGGIFDWNDMGWYRHEPGKESELVAAITSGGVTYYADSVKGRFTISRDNAKNTVYLQMNSLIPDDTSVFYCATGYWGLWYGYDSWGQGTQVTVSS,low polyreactivity
6,QVQLVESGGGLVQAGGSLRLSCAASGRTFYYYAMGWYRPAPGKERELVAAITSGGRTYYADSVKGRFTISRDNAKNRVYLQMQSLKPEDTAVYYCAARDFFRYSLGYDYWGQGTQVTVSS,high polyreactivity
7,QVQLVESGGGLVQAGGSLRLSCAASGSTFYANAMGWYRQAPGKERELVAAITRSGAGTYYADSVKGRFTFSRDNAKNTVYLQMNSLKPEDTAVYYCATRYGQWGQGTQVTVSS,high polyreactivity
8,QVQLVESGGGLVQAGGSLRLSCAASGFTFWWYAMGWYRQAPGKERELVASIDTRGGTYYADSVKGRFTISRDNAKNTVYLQMNSLKPEDSAVYYCNADGAYGNYRGGYWGQGTEVTVSS,high polyreactivity
9,QVQLVESGGGLVQAGGSLRLSCAATGNIFTPYTMGWYRQAPGKERELVASINNAGTTKYADSVKGRFTISRDNAKTTVYLQMNSLKPEDTAVYYCAAQRRHALSSYPKHYYWGQGTQVTVSS,low polyreactivity
10,QVQLVESGGGLFQAGGSLRLSCAASGSTFRHYDMAWYRQAPGKERELVAVISWGGTSTYYADSVKGRFTISRDNAKNTVYLQMHSLKPEDTGVYYCNKAYFPIFKGYEMYYWGQGTQVTVST,low polyreactivity
11,QVQLVESGGALVQAGGSLRLSCAASRFTFTRYVMGWYSQAPGKERELVAAISINGGRTYYADSVKGRFTISRDNAKNTVYLQMNSLKPEDTAVYDCAAERYYWYTEMGYWGQGTQVTVSS,high polyreactivity
12,QVHLEESGGGIVQAGGSLRLSCAASGSNFGYNAMGWYRQAPGKEREFVARISSRDDRTSYADSVKGRFTISRDNAKNTVYLQMNSLKPEDTAVYYFAAVRFFLTRAWRPLNYWGQGTIVTVSS,high polyreactivity
13,QVQLVESGGGLVQAGGSLRLSCAASGFIFYRYVMGWYRQAPGKERELVAAITWSGGSTYYADSVKGRFTISRDNAKNTVYLQMNSLKPEDTAGNYCAAEWWLPSFGMDYWGQGTQVTVSS,low polyreactivity
14,QDQLVESGGGLVQAGGSLRLSCAPSGRTFYSYAMGWYRQAPGKERELVATIDSGGRTNYADSVKGRFTISRDNAKNTVYLQMNSLKPEDTAVYYCAASVWNWYFGIRYDYWGQGTQVTVSS,high polyreactivity
15,QVQLVESGGGLVQAGGSLRLSCAASGSTFRPYAMGWYRQAPGKERDLVAAISSSGGSTYYADSVKGRFTISRDNAKNTVYLQMNSLKPEDTAVYYCAAVRRYRYPEYNHWGQGTQVTVSS,low polyreactivity
16,QVQLVESGGGLVQAGGSLRLSCAASGFTFSYYAKGWYRQAPGKERELVAVISDRGGITYYADSVKGRFTISRDNAKNTVYLQMNSLKPEDTAVYYCAAQNPRYNDRYYYWGQGTQVTVSS,low polyreactivity
17,QVQLVESGGGLVQAGGSLRLSCAASGSTFYHYAMVWYRQAPGKERELVAAISSSGGRTYYADSVKGRFTISRDNAKNTVYLKMNSLKPEDTAVYYCAARAKTSGSIEDYWGQGTQVTVSS,high polyreactivity
18,QVQLVESGPGLFQAGGSLRLSCAASGNIFGYNVMAWYRQAPGKERELVAAITWSAGTTNYADSLKGRFTISRDNAKNTVYLQRNSLKPEDTAVYYFAVTWWYQDYDLTCYLYDYWGQGTEVTVSS,low polyreactivity
19,QVQLVESGGGLVQAGGSLRLSCAASGRIFHYYAMGWYRQAPGKERELVAASTFRGGNTYADSVKGRFTISRDNAKNTVYLQMNSLKPEDTAVYYCADSRLSGYYSRYGYWGQGTQVTVSS,high polyreactivity
20,QVQLVESGVGLVQAGGSLRLSCAASGITISYYSKGWSRQEPGKEREFVAAISWSVGSTYYADSVKGRFTISRDNAKNTVYLQMNSLKPEDTAVYYCAAEDGYWPTYYYWGQGTQVTVSW,high polyreactivity
21,QVQLVESGAGLVQAGGSLRLSCAASGSNFKWYAMGLYRQAPGKEREFVAAITWSGSGTFYADSVKGRFTISRDNAKKTVYLQMNSLKPEDTAVYYCNKADSYLLYSVTARYFRGFYSWGQVTQVTVSS,high polyreactivity
